First the molecules themselves.
T1: Peptide-68 (cysteine pairing not given here; also: biotinylated, site not given here)
T1 construct: mask peptide for the CD3 scFv
T1 peptide: DWCWYSPDNDGLCD

T2: Peptide-71 (cysteine pairing not given here; also: biotinylated, site not given here)
T2 construct: mask peptide for the CD3 scFv
T2 peptide: VDCGPDGDESILCY

T3: Peptide-73 (cysteine pairing not given here; also: biotinylated, site not given here)
T3 construct: mask peptide for the CD3 scFv
T3 peptide: VYCGPEFDESVGCA

T4: Peptide-74 (cysteine pairing not given here; also: biotinylated, site not given here)
T4 construct: mask peptide for the CD3 scFv
T4 peptide: ASQCLGPEWEVCPY

T5: Peptide-67 (cysteine pairing not given here; also: biotinylated, site not given here)
T5 construct: mask peptide for the CD3 scFv
T5 peptide: VYCGPEFDESVGCM

T6: Peptide-66 (cysteine pairing not given here; also: biotinylated, site not given here)
T6 construct: mask peptide for the CD3 scFv
T6 peptide: GSQCLGPEWEVCPY

T7: Peptide-75 (cysteine pairing not given here; also: biotinylated, site not given here)
T7 construct: mask peptide for the CD3 scFv
T7 peptide: GSACLGPEWEVCPY

T8: Human TROP2 ECD (31-274 AA), biotinylated (human, UniProt P09758 31-274, biotinylated (site not stated))
T8 construct: also called tumor-associated calcium signal transducer 2; Human TROP2-biotin
T8 sequence: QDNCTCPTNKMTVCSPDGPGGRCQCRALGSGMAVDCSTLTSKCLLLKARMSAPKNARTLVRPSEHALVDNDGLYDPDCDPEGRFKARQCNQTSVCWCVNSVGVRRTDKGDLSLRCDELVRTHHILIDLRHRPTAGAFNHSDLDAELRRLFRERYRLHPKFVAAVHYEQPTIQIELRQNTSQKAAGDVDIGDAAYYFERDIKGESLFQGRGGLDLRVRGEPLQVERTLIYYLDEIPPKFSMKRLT

B1: TCE-26 (anti-CD3 scFv W233A; anti-TROP2 HC wt) (bispecific antibody)
light: DIQLTQSPSSLSASVGDRVSITCKASQDVSIAVAWYQQKPGKAPKLLIYSASYRYTGVPDRFSGSGSGTDFTLTISSLQPEDFAVYYCQQHYITPLTFGAGTKVEIKRTVAAPSVFIFPPSDEQLKSGTASVVCLLNNFYPREAKVQWKVDNALQSGNSQESVTEQDSKDSTYSLSSTLTLSKADYEKHKVYACEVTHQGLSSPVTKSFNRGEC
heavy: not shown
notes: scFv on the Fab heavy chain; also called TCE-26 (W233A)
B2: PC-3 + MTSP1 (bispecific antibody)
light: B1 light
chain: not shown
modifications: Protease-treated product: both masks and the anti-albumin domain are cut off in the cleavable linkers.
notes: not shown: The few linker residues left at the N-terminus of each chain after the MTSP1 cut
B3: PC-2 + MTSP1 (bispecific antibody)
light: B1 light
chain: not shown
modifications: Protease-treated product: both masks and the anti-albumin domain are cut off in the cleavable linkers.
notes: as for B2
B4: TCE-28 (anti-CD3 scFv S235A; anti-TROP2 wt) (bispecific antibody)
light: B1 light
heavy: not shown
notes: scFv on the Fab heavy chain
B5: Peptide-70 (peptide)
peptide: YLCGPDGDETLACY
modifications: cysteine pairing not given here; also: biotinylated, site not given here
notes: mask peptide for the CD3 scFv

The target of one assay is T1, Peptide-68. Briefly: ELISA, TCE on captured biotin-peptide. In general terms: An ELISA detects its analyte on a solid surface through an enzyme-linked reagent.
The assay “Peptide-70” has as its target B5. Briefly: ELISA, TCE on captured biotin-peptide.
For the next assay, the target named is T2, Peptide-71. Briefly: ELISA, TCE on captured biotin-peptide.
The next assay concerns the target T3, Peptide-73. Briefly: ELISA, TCE on captured biotin-peptide.
A further assay has as its target T4, Peptide-74. Briefly: ELISA, TCE on captured biotin-peptide.
The next assay concerns the target T5, Peptide-67. Briefly: ELISA, TCE on captured biotin-peptide.
A further assay has as its target T6, Peptide-66. Briefly: ELISA, TCE on captured biotin-peptide.
Another assay has as its target T7, Peptide-75. Briefly: ELISA, TCE on captured biotin-peptide.
Assay [1] has as its target T9, CD3 (biotinylated CD3 antigen) (human, UniProt P07766 23-126, limits assumed, biotinylated (site not stated)).
T9 construct: also called CD3ε; human CD3
Briefly: ELISA: biotinylated CD3 captured on neutravidin plates, TCE titrated, HRP secondary antibody.

The target of assay [2] is T8, Human TROP2 ECD (31-274 AA), …. Briefly: ELISA on immobilized TROP2; binder pre-treated with MTSP1.
Assay [3] has as its target B1. Briefly: competition ELISA, TCE on captured CD3.
Assay [4] concerns the target T10, TCE-22 (anti-CD3 scFv W112A; anti-TROP2 wt).
T10 construct: scFv on the Fab heavy chain; also called TCE-22 (W112A)
Briefly: competition ELISA, TCE on captured CD3.

The target in assay [5] is T11, TCE-31 (anti-CD3 scFv W238A; anti-TROP2 wt).
T11 construct: scFv on the Fab heavy chain; also called TCE-31 (W238A)
Briefly: competition ELISA, TCE on captured CD3.

Assay [6] has as its target T12, TCE-1 (anti-CD3 scFv wt; anti-TROP2 Fab wt).
T12 construct: anti-CD3 scFv fused to the N-terminus of the anti-TROP2 Fab heavy chain; also called TCE-1 (wt)
Briefly: competition ELISA: peptide titrated and pre-incubated with a constant concentration of TCE-1, binding of TCE-1 to plate-bound biotinylated CD3 detected.

In assay [7] the target is T13, TCE-38 (anti-CD3 scFv F240A; anti-TROP2 F108A).
T13 construct: scFv on the Fab heavy chain
Briefly: competition ELISA, TCE on captured CD3.

For assay [8], the target named is T14, TCE-36 (anti-CD3 scFv H101A; anti-TROP2 F108A).
T14 construct: scFv on the Fab heavy chain
Briefly: competition ELISA, TCE on captured CD3.

Assay [9] has as its target T15, TCE-10 (anti-CD3 scFv R100A; anti-TROP2 wt).
T15 construct: scFv on the Fab heavy chain; also called TCE-10 (R100A)
Briefly: competition ELISA, TCE on captured CD3.

The target in assay [10] is T16, TCE-20 (anti-CD3 scFv S110A; anti-TROP2 wt).
T16 construct: scFv on the Fab heavy chain; also called TCE-20 (S110A)
Briefly: competition ELISA, TCE on captured CD3.

Assay [11] deals with T17, TCE-13 (anti-CD3 scFv N103A; anti-TROP2 wt).
T17 construct: scFv on the Fab heavy chain; also called TCE-13 (N103A)
Briefly: competition ELISA, TCE on captured CD3.

In assay [12] the target is T18, TCE-14 (anti-CD3 scFv F104A; anti-TROP2 wt).
T18 construct: scFv on the Fab heavy chain; also called TCE-14 (F104A)
Briefly: competition ELISA, TCE on captured CD3.

Assay [13] concerns the target T19, TCE-39 (anti-CD3 scFv P41S, A49G, N87S, L150F, T151S, G163R, P175A, K181T, T200V, A202D, L208I, G211N, L217I, …).
T19 construct: scFv on the Fab heavy chain
Briefly: competition ELISA, TCE on captured CD3.

Assay [14] concerns the target T20, TCE-7 (anti-CD3 scFv wt; anti-TROP2 F108A).
T20 construct: scFv on the Fab heavy chain
Briefly: competition ELISA, TCE on captured CD3.

Assay [15] concerns the target T21, TCE-37 (anti-CD3 scFv F104A; anti-TROP2 F108A).
T21 construct: scFv on the Fab heavy chain
Briefly: competition ELISA, TCE on captured CD3.

Where no end group is shown, it is not given here.

For the molecule B1, the EC50 (commonly the concentration needed to bring the measured effect to its halfway point) is 2.68 nM in the assay with Peptide-68; 0.95 nM with Peptide-70; 4.69 nM with Peptide-71; 6.63 nM with Peptide-73; 5.47 nM with Peptide-74; 6.46 nM in the assay with Peptide-67. The values for the EC50 (with Peptide-66; in the assay with Peptide-75; in assay [1]) were 6.28 nM, 6.26 nM and 1.81 nM, respectively.
B2: the EC50 in assay [2] amounted to 0.42 nM.
Turning to B3, the EC50 in [2] was found to be 0.45 nM.
As for B4, the concentration giving a half-maximal response (EC50) in assay [1] worked out at 0.158 nM.
B5: the IC50 (commonly the concentration needed to halve the response being measured) in assay [3] amounted to 5 µM; in assay [4] it was 470 nM; in assay [5], 43.5 µM; in assay [7], 140 nM; in assay [8] it was 80 nM; in assay [9], 240 nM. In addition, the IC50 in assay [10] was 370 nM; in [11], 2110 nM; in assay [12], 180 nM. For the same molecule, the “IC50 (read off the curve)” value in assay [6] is ~0.01 µM.
With YLCGPDADETLACY (cysteine pairing not given here; also: biotinylated, site not given here, mask peptide for the CD3 scFv) [Peptide-76], the IC50 in assay [13] was determined as 2790 nM; in assay [14], 17.5 µM; in assay [15] it was 950 nM.

The record behind these values is patent US20230357429A1 (JANUX THERAPEUTICS, published 2023).
